According to patent US20060240015A1 (Kyowa Kirin, published 2006):

B1: anti-hIGF human chimeric antibody KM3002 (antibody, human IgG1, V domains shown)
VH: EVHLVESGGGLVQPGRSLKLSCAASGFTFSNYYMTWVRQAPTKGLEWVAYISSGGGSTYYRDSVKGRFTISRDNAKSTLYLQMDSLRSEDTATYYCTTEDYGYWFAYWGQGTLVTVSS
VL: EIVLTQSPTTMAASPGEKVTITCRASSSVSYMHWFQQKSGTSPKPWIYGTSKLASGVPDRFSGSGSGTSYSLTISSMEAEDAATYYCLQRSSYPPTFGAGTKLELK
notes: V regions of KM1468 on human IgG1, kappa constant regions (vector pKANTEX93); also called anti-hIGF chimeric antibody KM3002
B2: anti-hIGF CDR-grafted antibody QGAR/NYPLL3A11 (antibody, V domains shown)
VH: EVQLVESGGGVVQPGRSLRLSCAASGFTFSNYYMTWVRQAPTKGLEWVAYISSGGGSTYYRDSVKGRFTISRDNSKNTLYLQMNSLRAEDTAVYYCTTEDYGYWFAYWGQGTLVTVSS
VL: DIVMTQSPDSLAVSLGERATITCRASSSVSYMHWFQQKPGQSPKPWIYGTSKLASGVPDRFSGSGSGTSYSLTISSLQAEDAATYYCLQRSSYPPTFGQGTKVEIK
notes: Human IgG1, kappa (pKANTEX93)
B3: anti-hIGF CDR-grafted antibody CamHV0/LV0 (antibody, human IgG1, V domains shown)
VH: QVQLVESGGGVVQPGRSLRLSCAASGFTFSNYYMTWVRQAPGKGLEWVAYISSGGGSTYYRDSVKGRFTISRDNSKNTLYLQMNSLRAEDTAVYYCAREDYGYWFAYWGQGTLVTVSS
VL: DIVMTQSPDSLAVSLGERATINCRASSSVSYMHWYQQKPGQPPKLLIYGTSKLASGVPDRFSGSGSGTDFTLTISSLQAEDVAVYYCLQRSSYPPTFGQGTKVEIK
notes: Human IgG1, kappa (pKANTEX93); also called CmaHV0/LV0
B4: anti-hIGF CDR-grafted antibody QAR/LV0 (antibody, human IgG1, V domains shown)
VH: EVQLVESGGGVVQPGRSLRLSCAASGFTFSNYYMTWVRQAPGKGLEWVAYISSGGGSTYYRDSVKGRFTISRDNSKNTLYLQMNSLRAEDTAVYYCTTEDYGYWFAYWGQGTLVTVSS
VL: DIVMTQSPDSLAVSLGERATINCRASSSVSYMHWYQQKPGQPPKLLIYGTSKLASGVPDRFSGSGSGTDFTLTISSLQAEDVAVYYCLQRSSYPPTFGQGTKVEIK
notes: Human IgG1, kappa (pKANTEX93); also called QAV/LV0
B5: anti-hIGF CDR-grafted antibody QGAR/PLLDFT (antibody, human IgG1, V domains shown)
VH: EVQLVESGGGVVQPGRSLRLSCAASGFTFSNYYMTWVRQAPTKGLEWVAYISSGGGSTYYRDSVKGRFTISRDNSKNTLYLQMNSLRAEDTAVYYCTTEDYGYWFAYWGQGTLVTVSS
VL: DIVMTQSPDSLAVSLGERATINCRASSSVSYMHWYQQKPGQSPKPWIYGTSKLASGVPDRFSGSGSGTSYSLTISSLQAEDVAVYYCLQRSSYPPTFGQGTKVEIK
notes: Human IgG1, kappa (pKANTEX93)
B6: anti-hIGF CDR-grafted antibody CamHV0/NYPLL3A11 (antibody, human IgG1, V domains shown)
VH: QVQLVESGGGVVQPGRSLRLSCAASGFTFSNYYMTWVRQAPGKGLEWVAYISSGGGSTYYRDSVKGRFTISRDNSKNTLYLQMNSLRAEDTAVYYCAREDYGYWFAYWGQGTLVTVSS
VL: DIVMTQSPDSLAVSLGERATITCRASSSVSYMHWFQQKPGQSPKPWIYGTSKLASGVPDRFSGSGSGTSYSLTISSLQAEDAATYYCLQRSSYPPTFGQGTKVEIK
B7: anti-hIGF CDR-grafted antibody QGAR/PLDFT (antibody, human IgG1, V domains shown)
VH: EVQLVESGGGVVQPGRSLRLSCAASGFTFSNYYMTWVRQAPTKGLEWVAYISSGGGSTYYRDSVKGRFTISRDNSKNTLYLQMNSLRAEDTAVYYCTTEDYGYWFAYWGQGTLVTVSS
VL: DIVMTQSPDSLAVSLGERATINCRASSSVSYMHWYQQKPGQSPKPLIYGTSKLASGVPDRFSGSGSGTSYSLTISSLQAEDVAVYYCLQRSSYPPTFGQGTKVEIK
notes: Human IgG1, kappa (pKANTEX93)
B8: anti-hIGF CDR-grafted antibody QGAR/LV0 (antibody, human IgG1, V domains shown)
VH: EVQLVESGGGVVQPGRSLRLSCAASGFTFSNYYMTWVRQAPTKGLEWVAYISSGGGSTYYRDSVKGRFTISRDNSKNTLYLQMNSLRAEDTAVYYCTTEDYGYWFAYWGQGTLVTVSS
VL: DIVMTQSPDSLAVSLGERATINCRASSSVSYMHWYQQKPGQPPKLLIYGTSKLASGVPDRFSGSGSGTDFTLTISSLQAEDVAVYYCLQRSSYPPTFGQGTKVEIK
notes: Human IgG1, kappa (pKANTEX93)

Experiments:
[1] = biological target: T1, human insulin-like growth factor-I (human, UniProt P05019 49-118); experiment: SPR (Biacore 2000), hIGF-I amine-coupled on CM-5, antibody as analyte, 25 C
T1 construct: mature; In the ELISAs it was coated as a conjugate with methylated BSA; in Biacore it was amine-coupled to a CM-5 chip; also called hIGF-I; IGF-I
Experimental: (§1) For diluting samples and as reaction buffers in measurement, HBS-EP (10 mM HEPES, 150 mM NaCl, 3 mM EDTA, 0.005% Tween 20 pH 7.4) (manufactured by Biacore) was used.
(§2) Using an amine coupling kit (manufactured by Biacore), recombinant hIGF-I (manufactured by Fujisawa Pharmaceutical Co., Ltd.) and hIGF-II (manufactured by R & D) were immobilized at 18.5 pg/mm² or 26.7 pg/mm², respectively, on sensor tip CM-5 (manufactured by Biacore). After various antibodies which were diluted 5 steps in 2-fold serial dilutions as analytes added at a flow of 5 μl/minute for 4 minutes to observe a binding reaction, the dissociation reaction was subsequently observed over 5 minutes. After the dissociation reaction, 5 μl of 30 mM hydrochloric acid was added once, to regenerate the sensor chip surface. The reaction was done at 25° C. Based on the reaction curves at various concentrations, the binding constant Kass and dissociation constant Kdiss were calculated, to calculate the binding constants KA (M⁻¹) of these various antibodies.

[2] = biological target: T2, human insulin-like growth factor-II (human, UniProt P01344 25-91); experiment: SPR (Biacore 2000), hIGF-II amine-coupled on CM-5, antibody as analyte, 25 C
T2 construct: also called hIGF-II; IGF-II
Experimental: as §1, §2

[3] = biological target: T2, human insulin-like growth factor-II; experiment: SPR (Biacore 2000)
[4] = biological target: T1, human insulin-like growth factor-I; experiment: SPR (Biacore 2000)
[5] = biological target: T1, human insulin-like growth factor-I; experiment: binding ELISA on coated mBSA-hIGF-I
Experimental: A conjugate of hIGF-I (manufactured by Fujisawa Co., Ltd.) with methylated BSA (manufactured by SIGMA) was prepared and used as an antigen to be immobilized on an ELISA plate. That is, methylated BSA dissolved in distilled water was mixed with hIGF to a ratio of methylated BSA:hIGF-I=1:8 (weight ratio) at 4° C. The resulting mixture was agitated with a vortex mixer for 10 seconds, to obtain a conjugate of hIGF-I with methylated BSA (hereinafter referred to as mBSA-hIGF-I).
The above mBSA-hIGF-I was dispensed at 50 μl/well on a 96-well ELISA plate (manufactured by Greiner) to give a hIGF-I concentration of 20 ng/ml and then left overnight at 4° C. for immobilization. After washing with PBS, PBS containing 1% BSA (hereinafter referred to as BSA-PBS) was dispensed in 100 μl/well to react at room temperature for 1 hour to carry out blocking of the remaining active groups. Discarding BSA-PBS, the culture supernatant of each of the various transformants or each of various purified hIGF CDR-grafted antibodies was dispensed at 50 μl/well to react at room temperature for 2 hours. After the reaction, each well was washed with PBS containing 0.05% Tween 20 (hereinafter referred to as Tween-PBS). Then, HRP-labeled anti-human IgG antibody (manufactured by American Qualex) in 2000-fold dilution was dispensed at 50 μl/well as a secondary antibody to react at room temperature for 1 hour.

T2 sequence (P01344 25-91 limits assumed): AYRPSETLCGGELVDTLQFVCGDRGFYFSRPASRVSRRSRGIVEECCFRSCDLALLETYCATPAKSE
T1 sequence (P05019 49-118): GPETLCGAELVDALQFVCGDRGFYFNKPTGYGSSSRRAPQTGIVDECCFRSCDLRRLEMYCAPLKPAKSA

Ka [1] | Ka [2] | KA relative to CamHV0/LV0 (fold) [3] | KA relative to CamHV0/LV0 (fold) [4] | KA relative to KM3002 (fold) [3] | KA relative to KM3002 (fold) [4] | binding activity relative to KM3002 (fold) [5] | binding activity relative to CamHV0/LV0 (fold) [5] | Binder
2.94e+09 M⁻¹ | 2.24e+09 M⁻¹ | – | – | – | – | – | – | B1
2.32e+09 M⁻¹ | 3.96e+09 M⁻¹ | ~10 fold | ~14 fold | – | – | – | – | B2
1.7e+08 M⁻¹ | 3.9e+08 M⁻¹ | – | – | ~0.167 fold | ~0.059 fold | ~0.02 fold | – | B3
1.7e+08 M⁻¹ | 4.5e+08 M⁻¹ | – | – | – | – | – | – | B4
2.78e+09 M⁻¹ | 3.52e+09 M⁻¹ | – | – | – | – | – | – | B5
1.32e+09 M⁻¹ | 2.1e+09 M⁻¹ | ~5 fold | ~8 fold | – | – | ~0.5 fold | ~25 fold | B6
2.31e+09 M⁻¹ | 4.02e+09 M⁻¹ | – | – | – | – | – | – | B7
7.8e+08 M⁻¹ | 1.75e+09 M⁻¹ | ~5 fold | ~5 fold | – | – | ~0.5 fold | ~25 fold | B8
